# Data: US5616484
# Target: T1, ApaLI restriction endonuclease (apaLIR product, 375 aa) (Acetobacter pasteurianus) (UniProt O52703)
# T1 sequence: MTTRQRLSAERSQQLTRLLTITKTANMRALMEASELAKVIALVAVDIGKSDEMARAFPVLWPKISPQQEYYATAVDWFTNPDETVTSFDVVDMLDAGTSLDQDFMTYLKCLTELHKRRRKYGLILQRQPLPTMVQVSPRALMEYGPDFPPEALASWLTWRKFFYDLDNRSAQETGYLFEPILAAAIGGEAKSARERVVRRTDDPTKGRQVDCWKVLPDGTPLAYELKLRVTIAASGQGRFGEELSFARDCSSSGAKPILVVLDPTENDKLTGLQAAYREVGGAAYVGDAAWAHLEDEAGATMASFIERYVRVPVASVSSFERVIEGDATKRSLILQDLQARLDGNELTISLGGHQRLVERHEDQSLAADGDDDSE
# Test: cleavage_in_vitro
# Conditions: diluted cell extract, 1 ug lambda DNA, 1 h, 37 C
substance,measurement,value
lambda DNA,activity (units/g wet cells),1e+06
